The values below come from publication PMC4174574.

pIC50: −log10 of the molar value.

The target of this assay is Mcl-1 (myeloid cell leukemia-1), recombinant protein (UniProt Q07820). In words: SPR. (In general: SPR reads the build-up and loss of mass on a sensor chip optically.)

One may read the pIC50 as the IC50 on a negative log10 scale, so that one unit is a factor of ten. For Noxa BH3 peptide, the pIC50 is 7.21.
